Patent US20230348614A1 (VISTERRA, published 2023)
Residue numbers refer to the chain shown, from its start.

Columns and labels:
P112A = target: T1, P112A (Homo sapiens, UniProt P18827); assay: alanine scan: flow cytometry on HEK-293T cells expressing the mutant clone, 4320 Fab 0.50 ug/mL, normalised to WT CD138; Range %WT Binding 9; Normalized 4320 vs. BB4 21.6
T1 construct: clone of the alanine scanning library on HEK-293T cells; m17 with one substitution; also called CD138 P112A
T1 sequence (CD138 (SDC1), full length, point mutant, looked up): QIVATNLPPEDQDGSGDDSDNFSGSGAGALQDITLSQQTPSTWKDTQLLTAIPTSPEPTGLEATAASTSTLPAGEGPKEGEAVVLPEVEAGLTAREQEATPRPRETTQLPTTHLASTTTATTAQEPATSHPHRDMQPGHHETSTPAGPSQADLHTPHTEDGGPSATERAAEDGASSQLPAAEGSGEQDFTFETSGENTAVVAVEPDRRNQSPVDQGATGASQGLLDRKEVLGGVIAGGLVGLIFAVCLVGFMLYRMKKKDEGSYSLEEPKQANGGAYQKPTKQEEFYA
Description: (§1) Serial dilutions of each MAb were tested for immunoreactivity against cells expressing target protein (WT) or vector alone. Validation of target expression and optimization of detection and binding of anti-CD138 antibodies both by flow cytometry was completed in replicate (N=4). The optimal screening concentration for each MAb was determined based on the raw signal values and signal-to-background calculations specifically optimized for each test article. Optimized parameters included the use of 10% goat serum as blocking reagent. Primary antibody staining was for 60 minutes at 25° C. Wash buffer include phosphate buffered saline (divalent metal ion free), pH 7.4. […] Secondary antibodies were diluted 1:400 and incubated for 30 minutes at 25° C.
(§2) Library screens of very-high-affinity mAbs can fail to yield critical residues for antibody binding due to deficiencies of such an assay to detect and differentiate critical vs. less critical binding based on affinity and quantification of cell binding. One common approach in the literature is the use of monovalent antibody derived fragments such as Fab usually weakens binding sufficiently to allow identification of critical residues for binding. […] Binding of each test Ab to each mutant clone in the alanine scanning library was determined, in duplicate, and likewise evaluated by flow cytometry.

G238A = target: T2, G238A (Homo sapiens, UniProt P18827); assay: alanine scan: flow cytometry on HEK-293T cells expressing the mutant clone, 4320 Fab 0.50 ug/mL, normalised to WT CD138; Range %WT Binding 9; Normalized 4320 vs. BB4 30.2
T2 construct: clone of the alanine scanning library on HEK-293T cells; m17 with one substitution; also called CD138 G238A
T2 sequence (CD138 (SDC1), full length, point mutant, looked up): T1 sequence (CD138 (SDC1), full length, point mutant, looked up) with A90P, G216A
Description: as §1, §2

L107A = target: T3, L107A (Homo sapiens, UniProt P18827); assay: alanine scan: flow cytometry on HEK-293T cells expressing the mutant clone, 4320 Fab 0.50 ug/mL, normalised to WT CD138; Range %WT Binding 13; Normalized 4320 vs. BB4 16.8
T3 construct: clone of the alanine scanning library on HEK-293T cells; m17 with one substitution; also called CD138 L107A
T3 sequence (CD138 (SDC1), full length, point mutant, looked up): T1 sequence (CD138 (SDC1), full length, point mutant, looked up) with L85A, A90P
Description: as §1, §2

D210A = target: T4, D210A (Homo sapiens, UniProt P18827); assay: alanine scan: flow cytometry on HEK-293T cells expressing the mutant clone, 4320 Fab 0.50 ug/mL, normalised to WT CD138; Range %WT Binding 15; Normalized 4320 vs. BB4 56.7
T4 construct: clone of the alanine scanning library on HEK-293T cells; m17 with one substitution; also called CD138 D210A
T4 sequence (CD138 (SDC1), full length, point mutant, looked up): T1 sequence (CD138 (SDC1), full length, point mutant, looked up) with A90P, D188A
Description: as §1, §2

T188A = target: T5, T188A (Homo sapiens, UniProt P18827); assay: alanine scan: flow cytometry on HEK-293T cells expressing the mutant clone, 4320 Fab 0.50 ug/mL, normalised to WT CD138; Range %WT Binding 29; Normalized 4320 vs. BB4 59.8
T5 construct: clone of the alanine scanning library on HEK-293T cells; m17 with one substitution; also called CD138 T188A
T5 sequence (CD138 (SDC1), full length, point mutant, looked up): T1 sequence (CD138 (SDC1), full length, point mutant, looked up) with A90P, T166A
Description: as §1, §2

B1: Fab fragment of mAb 4320 (Fab, V domains shown)
VH: QVQLVQSGAEVKKPGASVKVSCKASGYSFSSYYMHWVRQAPGQGLEWMGTIHPSDSTTNYNQKFQGRVTMTVDTSTRTAYMELSSLRSEDTAVYYCANFVYWGQGTTVTVSS
VL: DIVMTQTPLSLSVTPGQPASISCKSSKSLLYKDGKTYLNWFLQKPGQSPQLLIYVVSTRASGVPDRFSGSGSGTDFTLKISRVEAEDVGVYYCQQLVEYPYTFGQGTKLEIKR
modifications: N-terminal Q1 observed as pyroglutamic acid (PCA) in the 138-2-5 complex
notes: In the crystal structures heavy chain residues 1-213 were traced; also called Fab4320
- Mean %WT Binding (P112A): 22.6 %WT
- Mean %WT Binding (G238A): 28.3 %WT
- Mean %WT Binding (L107A): 18.2 %WT
- Mean %WT Binding (D210A): 42.7 %WT
- Mean %WT Binding (T188A): 57.4 %WT
